B1: Myosin-binding protein C, slow-type (Homo sapiens), Q00872-4 (parent)
chain: MPEPTKKEENEVPAPAPPPEEPSKEKEAGTTPAKDEEEVSPPSALPPGLGSRALERKDSDWTLVETPPGEEQAKQNANSQLSILFIEKPQGGTVKVGEDITFIAKVKAEDLLRKPTIKWFKGKWMDLASKAGKHLQLKETFERHSRVYTFEMQIIKAKDNFAGNYRCEVTYKDKFDSCSFDLEVHESTGTTPNIDIRSAFKRSGEGQEDAGELDFSGLLKRREVKQQEEEPQVDVWELLKNAKPSEYEKIAFQYGITDLRGMLKRLKRMRREEKKSAAFAKILDPAYQVDKGGRVRFVVELADPKLEVKWYKNGQEIRPSTKYIFEHKGCQRILFINNCQMTDDSEYYVTAGDEKCSTELFVREPPIMVTKQLEDTTAYCGERVELECEVSEDDANVKWFKNGEEIIPGPKSRYRIRVEGKKHILIIEGATKADAAEYSVMTTGGQSSAKLSVDLKPLKILTPLTDQTVNLGKEICLKCEISENIPGKWTKNGLPVQESDRLKVVHKGRIHKLVIANALTEDEGDYVFAPDAYNVTLPAKVHVIDPPKIILDGLDADNTVTVIAGNKLRLEIPISGEPPPKAMWSRGDKAIMEGSGRIRTESYPDSSTLVIDIAERDDSGVYHINLKNEAGEAHASIKVKVVDFPDPPVAPTVTEVGDDWCIMNWEPPAYDGGSPILGYFIERKKKQSSRWMRLNFDLCKETTFEPKKMIEGVAYEVRIFAVNAIGISKPSMPSRPFVPLAVTSPPTLLTVDSVTDTTVTMRWRPPDHIGAAGLDGYVLEYCFEGTEDWIVANKDLIDKTKFTITGLPTDAKIFVRVKAVNAAGASEPKYYSQPILVKEIIEPPKIRIPRHLKQTYIRRVGEAVNLVIPFQGKPRPELTWKKDGAEIDKNQINIRNSETDTIIFIRKAERSHSGKYDLQVKVDKFVETASIDIQIIDRPGPPQIVKIEDVWGENVALTWTPPKDDGNAAITGYTIQKADKKSMEWFTVIEHYHRTSATITELVIGNEYYFRVFSENMCGLSEDATMTKESAVIARDGKIYKNPVYEDFDFSEAPMFTQPLVNTYAIAGYNATLNCSVRGNPKPKITWMKNKVAIVDDPRYRMFSNQGVCTLEIRKPSPYDGGTYCCKAVNDLGTVEIECKLEVKVIYQGVNTPGQPVFLEGQQQSLHNKDF

What was measured:
acts_rabit ACTA1, P68135 = variants of: B1; conditions: with acts_rabit ACTA1, P68135
[1] = variants of: B1; conditions: with myh11_rabit MYH11, P35748
myh11_rabit MYH11, P35748, sequence (P35748 whole entry): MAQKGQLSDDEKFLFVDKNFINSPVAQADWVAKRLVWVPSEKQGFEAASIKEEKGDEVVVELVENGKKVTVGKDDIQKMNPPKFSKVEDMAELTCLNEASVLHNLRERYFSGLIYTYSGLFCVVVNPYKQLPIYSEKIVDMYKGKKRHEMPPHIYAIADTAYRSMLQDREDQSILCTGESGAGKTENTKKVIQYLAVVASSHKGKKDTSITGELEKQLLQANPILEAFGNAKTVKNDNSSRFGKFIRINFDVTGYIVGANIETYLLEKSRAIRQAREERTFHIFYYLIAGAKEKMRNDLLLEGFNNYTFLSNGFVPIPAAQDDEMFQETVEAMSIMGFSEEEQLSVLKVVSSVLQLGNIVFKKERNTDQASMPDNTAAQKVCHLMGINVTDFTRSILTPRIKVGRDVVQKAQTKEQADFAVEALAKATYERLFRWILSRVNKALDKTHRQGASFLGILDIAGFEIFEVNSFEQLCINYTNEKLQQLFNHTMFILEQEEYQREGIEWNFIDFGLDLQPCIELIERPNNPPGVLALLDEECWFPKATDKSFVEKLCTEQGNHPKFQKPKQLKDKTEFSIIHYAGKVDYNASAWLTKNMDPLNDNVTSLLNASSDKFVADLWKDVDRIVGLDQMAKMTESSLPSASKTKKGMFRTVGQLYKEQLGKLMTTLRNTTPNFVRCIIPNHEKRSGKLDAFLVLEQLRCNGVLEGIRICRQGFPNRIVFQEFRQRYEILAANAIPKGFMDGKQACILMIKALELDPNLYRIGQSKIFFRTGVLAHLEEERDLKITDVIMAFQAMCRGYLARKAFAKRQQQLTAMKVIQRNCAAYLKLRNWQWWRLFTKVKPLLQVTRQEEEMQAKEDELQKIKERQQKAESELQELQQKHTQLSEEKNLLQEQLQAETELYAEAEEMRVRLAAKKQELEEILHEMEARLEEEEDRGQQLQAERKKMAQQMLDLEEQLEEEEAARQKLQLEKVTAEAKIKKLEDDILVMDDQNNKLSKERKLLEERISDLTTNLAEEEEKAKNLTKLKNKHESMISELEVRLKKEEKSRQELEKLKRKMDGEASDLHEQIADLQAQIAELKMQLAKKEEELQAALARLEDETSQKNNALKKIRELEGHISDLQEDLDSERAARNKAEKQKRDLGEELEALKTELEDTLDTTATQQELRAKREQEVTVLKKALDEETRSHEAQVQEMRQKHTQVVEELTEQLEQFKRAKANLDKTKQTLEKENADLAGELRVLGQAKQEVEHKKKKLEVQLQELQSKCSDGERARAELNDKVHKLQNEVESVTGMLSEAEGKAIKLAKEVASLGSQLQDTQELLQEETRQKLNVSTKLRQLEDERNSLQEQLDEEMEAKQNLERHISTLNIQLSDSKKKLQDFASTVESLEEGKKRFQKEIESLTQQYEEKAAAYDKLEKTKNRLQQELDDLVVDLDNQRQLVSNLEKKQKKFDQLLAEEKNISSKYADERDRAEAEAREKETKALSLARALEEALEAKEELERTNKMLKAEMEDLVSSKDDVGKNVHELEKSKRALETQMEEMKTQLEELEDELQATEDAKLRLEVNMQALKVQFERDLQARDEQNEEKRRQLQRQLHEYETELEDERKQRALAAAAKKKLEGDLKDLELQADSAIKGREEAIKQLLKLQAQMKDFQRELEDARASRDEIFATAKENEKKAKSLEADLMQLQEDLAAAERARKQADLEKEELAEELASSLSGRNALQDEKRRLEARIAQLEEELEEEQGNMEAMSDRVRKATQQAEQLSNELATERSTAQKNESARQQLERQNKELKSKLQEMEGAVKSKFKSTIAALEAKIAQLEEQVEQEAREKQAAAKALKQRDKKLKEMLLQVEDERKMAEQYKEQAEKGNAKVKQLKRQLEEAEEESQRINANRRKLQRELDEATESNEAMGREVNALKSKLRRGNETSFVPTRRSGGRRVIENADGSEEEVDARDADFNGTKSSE

Variant | effect of a mutation on the interaction (acts_rabit ACTA1, P68135) | effect of a mutation on the interaction [1]
E248K | increasing interaction strength | increasing interaction strength
Y247H | increasing interaction strength | increasing interaction strength

Source: IntAct's records for PubMed 31025394
